Results from patent publication US20190315845A1 (ANNEXON, published 2019).
Read-outs that look alike come from different tables or passages of the source.

Assays:
human C1q [1] = target: T1, human C1q (human, UniProt P02745 23-245; P02746 28-253; P02747 29-245); assay: competition ELISA on plate-bound human C1q against biotinylated mouse M1 antibody (0.02 µg/ml); bound biotin-M1 read as OD450
T1 construct: Purified human C1q protein (plate-coated in ELISA, ligand or analyte in SPR, in human serum in CH50); also called hC1q; complement factor C1q
T1 sequence (P02745 23-245 limits assumed, chain 1 of 3): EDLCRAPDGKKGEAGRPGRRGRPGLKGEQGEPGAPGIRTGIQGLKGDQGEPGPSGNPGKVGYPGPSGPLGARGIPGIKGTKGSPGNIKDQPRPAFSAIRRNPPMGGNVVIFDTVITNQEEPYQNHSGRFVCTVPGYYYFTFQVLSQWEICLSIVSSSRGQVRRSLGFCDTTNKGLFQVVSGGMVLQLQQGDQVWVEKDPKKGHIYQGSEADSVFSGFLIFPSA
T1 sequence (P02746 28-253 limits assumed, chain 2 of 3): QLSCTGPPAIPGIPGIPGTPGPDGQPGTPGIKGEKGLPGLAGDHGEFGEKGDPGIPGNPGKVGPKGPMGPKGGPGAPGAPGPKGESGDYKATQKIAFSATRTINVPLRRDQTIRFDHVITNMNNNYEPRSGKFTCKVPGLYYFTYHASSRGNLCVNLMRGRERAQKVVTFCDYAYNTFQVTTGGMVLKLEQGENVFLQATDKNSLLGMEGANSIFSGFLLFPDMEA
T1 sequence (P02747 29-245 limits assumed, chain 3 of 3): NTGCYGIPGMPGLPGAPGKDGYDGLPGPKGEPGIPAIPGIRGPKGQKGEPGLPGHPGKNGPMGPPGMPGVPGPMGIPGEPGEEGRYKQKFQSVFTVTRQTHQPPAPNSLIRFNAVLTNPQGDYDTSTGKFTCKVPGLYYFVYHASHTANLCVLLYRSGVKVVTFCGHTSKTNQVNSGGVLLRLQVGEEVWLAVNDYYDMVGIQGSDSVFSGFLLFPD
Text: (§1) FIG. 4A, FIG. 4B, FIG. 4C, and FIG. 4D depicts competition ELISA assays for human C1q. A dilution series of purified humanized anti-C1q antibodies were competed against a fixed concentration of biotinylated monoclonal antibody M1 for binding to human C1q. Bound biotinylated M1 antibody was detected using streptavidin-peroxidase conjugate and TMB substrate. FIG. 4A depicts the results with the humanized antibodies VH1/Vκ1, VH1/Vκ2, and VH1/Vκ3. FIG. 4B depicts the results with the humanized antibodies VH1/Vκ4, VH2/Vκ1, VH2/Vκ2, VH2/Vκ3, and VH2/Vκ4. FIG. 4C depicts the results with the humanized antibodies VH3/Vκ1, VH3/Vκ2, VH3/Vκ3, and VH3/Vκ4. FIG. 4D depicts the results with the humanized antibodies VH4/Vκ1, VH4/Vκ2, […], and VH4/Vκ4.
(§2) The binding of humanized M1 variants to human C1q was analyzed by competition ELISA. A three-fold dilution series of test antibody (5 μg/ml to 0.002 μg/ml) was premixed with a constant concentration of biotinylated mouse M1 antibody (0.02 μg/ml, final concentration) before incubating for 1 hour at 37° C. with shaking on plates pre-coated with human C1q at 1.0 μg/ml. The binding of mouse M1 antibody was detected with streptavidin-peroxidase conjugate (Sigma-Aldrich cat. no. 55512) and TMB (3,3′,5,5′-tetramethylbenzidine) substrate (Thermo Scientific cat. no. 34029). The reaction was stopped with 1M HCl, absorbance read at 450 nm on a Dynex Technologies MRX TC II plate reader and the binding curves plotted.

human C1q [2] = target: T1, human C1q; assay: competition ELISA, plate-coated human C1q; competitor biotinylated mouse M1 (0.02 µg/ml); IC50 normalised to chimeric M1
Procedure: as §2
The binding curves were used to calculate IC₅₀ values (concentration of test antibody that inhibits labelled competitor binding by 50%) for each antibody normalized to the IC₅₀ of chimeric M1 and antibody yields from NS0 transfectants were also compared (Table 1).

human C1q [3] = target: T1, human C1q; assay: competition ELISA on plate-bound human C1q against biotinylated mouse M1 antibody (0.02 µg/ml); bound biotin-M1 read as OD450; remark: listed apart in the source
Text: as §1, §2

human C1q [4] = target: T1, human C1q; assay: as above; remark: listed apart in the source
Text: as §1, §2

human C1q [5] = target: T1, human C1q; assay: cell-based or functional assay
rat C1q = rat C1q (rat, UniProt P31720 23-245; P31721 26-253; P31722 29-245); assay: cell-based or functional assay
Sequence of rat C1q (P31720 23-245 limits assumed, chain 1 of 3): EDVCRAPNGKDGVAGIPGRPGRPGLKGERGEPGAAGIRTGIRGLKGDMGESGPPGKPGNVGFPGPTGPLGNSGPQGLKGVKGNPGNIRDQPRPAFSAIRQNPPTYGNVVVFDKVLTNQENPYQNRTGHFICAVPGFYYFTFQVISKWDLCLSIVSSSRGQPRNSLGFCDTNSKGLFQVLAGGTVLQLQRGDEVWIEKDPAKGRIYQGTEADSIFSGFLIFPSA
Sequence of rat C1q (P31721 26-253 limits assumed, chain 2 of 3): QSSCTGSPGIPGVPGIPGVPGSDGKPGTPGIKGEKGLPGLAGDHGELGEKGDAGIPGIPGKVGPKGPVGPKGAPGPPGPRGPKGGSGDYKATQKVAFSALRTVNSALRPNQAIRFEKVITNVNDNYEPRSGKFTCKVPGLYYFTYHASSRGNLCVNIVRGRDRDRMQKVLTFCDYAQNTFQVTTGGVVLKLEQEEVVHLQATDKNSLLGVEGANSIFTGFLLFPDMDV
Sequence of rat C1q (P31722 29-245 limits assumed, chain 3 of 3): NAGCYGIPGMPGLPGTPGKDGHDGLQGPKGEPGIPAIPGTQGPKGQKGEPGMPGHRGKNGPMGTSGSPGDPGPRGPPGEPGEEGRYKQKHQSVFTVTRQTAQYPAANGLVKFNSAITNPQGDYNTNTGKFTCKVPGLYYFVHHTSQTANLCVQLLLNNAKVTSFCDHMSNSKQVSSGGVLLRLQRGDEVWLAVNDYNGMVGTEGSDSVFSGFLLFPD

mouse C1q [6] = target: T2, mouse C1q (mouse, UniProt P98086 23-245; P14106 26-253; Q02105 30-246); assay: competition ELISA, plate-coated mouse C1q; competitor biotinylated chimeric M1 (0.03 µg/ml); IC50 normalised to chimeric M1
T2 construct: Purified mouse C1q protein; also called mC1q
T2 sequence (P98086 23-245 limits assumed, chain 1 of 3): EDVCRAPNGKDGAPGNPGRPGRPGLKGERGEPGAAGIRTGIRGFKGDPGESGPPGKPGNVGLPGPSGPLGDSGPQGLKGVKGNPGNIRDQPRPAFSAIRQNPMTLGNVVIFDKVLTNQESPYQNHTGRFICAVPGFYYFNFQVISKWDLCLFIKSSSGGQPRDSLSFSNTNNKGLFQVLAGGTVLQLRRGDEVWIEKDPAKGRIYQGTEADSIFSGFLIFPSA
T2 sequence (P14106 26-253 limits assumed, chain 2 of 3): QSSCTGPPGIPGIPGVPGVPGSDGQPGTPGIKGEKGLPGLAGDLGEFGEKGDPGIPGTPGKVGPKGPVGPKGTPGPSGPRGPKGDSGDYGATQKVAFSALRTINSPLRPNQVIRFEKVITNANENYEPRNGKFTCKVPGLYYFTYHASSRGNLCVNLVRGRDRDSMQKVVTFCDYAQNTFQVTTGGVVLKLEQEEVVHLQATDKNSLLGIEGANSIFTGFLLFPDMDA
T2 sequence (Q02105 30-246 limits assumed, chain 3 of 3): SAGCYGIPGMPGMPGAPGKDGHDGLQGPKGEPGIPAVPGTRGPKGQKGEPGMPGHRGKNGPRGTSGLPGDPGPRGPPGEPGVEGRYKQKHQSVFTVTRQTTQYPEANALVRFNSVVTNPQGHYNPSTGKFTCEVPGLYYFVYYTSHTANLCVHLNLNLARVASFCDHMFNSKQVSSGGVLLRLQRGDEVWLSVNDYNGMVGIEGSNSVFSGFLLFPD
Procedure: (§3) The binding of humanized M1 variants to mouse C1q was analyzed by competition ELISA on four selected antibodies, VH1/Vκ1, VH3/Vκ1, VH3/Vκ4 and VH4/Vκ3. An irrelevant IgG4 (S241P L248E) antibody was also included as a binding control. A three-fold dilution series of test antibody (100 μg/ml to 0.046 μg/ml) was premixed with a constant concentration of biotinylated chimeric M1 antibody (0.03 μg/ml, final concentration) before incubating for 1 hour at 37° C. with shaking on plates pre-coated with mouse C1q at 5.0 μg/ml. The binding of chimeric M1 antibody was detected with streptavidin-peroxidase conjugate (Sigma-Aldrich cat. no. S5512) and TMB substrate (Thermo Scientific cat. no. 34029). The reaction was stopped with 1M HCl, absorbance read at 450 nm on a Dynex Technologies MRX TC II plate reader and the binding curves plotted.
(§4) The binding curves were used to calculate IC₅₀ values for each antibody normalized to the IC₅₀ of chimeric M1 (Table 2).

mouse C1q [7] = target: T2, mouse C1q; assay: competition ELISA on plate-bound mouse C1q against biotinylated chimeric M1 antibody (0.03 µg/ml); bound biotin-chimeric M1 read as OD450
Procedure: as §3, §4

human C1q [8] = target: T1, human C1q; assay: competition ELISA on plate-bound human C1q against biotinylated mouse M1 antibody (0.02 µg/ml); bound biotin-M1 read as OD450; remark: listed apart in the source
Text: as §1, §2

B1: humanized anti-C1q antibody VH2/Vκ2 (antibody, human IgG4)
heavy: not shown
light: DVQITQSPSSLSASLGERATINCRASKSINKYLAWYQQKPGKANKLLIYSGSTLQSGIPARFSGSGSGTDFTLTISSLEPEDFAMYYCQQHNEYPLTFGQGTKLEIK
notes: Full-length human IgG4 (S241P L248E) / human kappa, expressed in NS0, Protein A purified; not shown: human kappa light chain constant region
IC50 (read off the curve) (human C1q [1]): ~0.3 µg/mL | Relative IC50 (human C1q [2]): 1.12 ratio to chimeric M1

B2: humanized anti-C1q antibody VH2/Vκ4 (antibody, human IgG4)
heavy: not shown
light: DIQLTQSPSSLSASLGERATINCRASKSINKYLAWYQQKPGKAPKLLIYSGSTLQSGIPARFSGSGSGTDFTLTISSLEPEDFAMYYCQQHNEYPLTFGQGTKLEIK
notes: as for B1
IC50 (read off the curve) (human C1q [1]): ~0.2 µg/mL | Relative IC50 (human C1q [2]): 0.72 ratio to chimeric M1

B3: humanized anti-C1q antibody VH2/Vκ1 (antibody, human IgG4)
heavy: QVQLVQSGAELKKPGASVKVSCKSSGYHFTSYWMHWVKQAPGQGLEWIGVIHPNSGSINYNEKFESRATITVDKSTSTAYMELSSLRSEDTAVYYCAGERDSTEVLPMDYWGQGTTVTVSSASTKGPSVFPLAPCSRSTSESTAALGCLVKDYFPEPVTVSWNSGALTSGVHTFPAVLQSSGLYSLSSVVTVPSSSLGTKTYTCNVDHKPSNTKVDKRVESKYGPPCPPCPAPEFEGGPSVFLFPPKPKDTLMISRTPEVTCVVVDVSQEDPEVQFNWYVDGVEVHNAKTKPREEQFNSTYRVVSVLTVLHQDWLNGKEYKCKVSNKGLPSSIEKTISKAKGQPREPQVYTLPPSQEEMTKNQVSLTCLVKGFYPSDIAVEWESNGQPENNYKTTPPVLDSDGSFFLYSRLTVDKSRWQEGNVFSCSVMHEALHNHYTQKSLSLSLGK
light: DVQITQSPSYLAASLGERATINCRASKSINKYLAWYQQKPGKTNKLLIYSGSTLQSGIPARFSGSGSGTDFTLTISSLEPEDFAMYYCQQHNEYPLTFGQGTKLEIK
notes: as for B1
IC50 (read off the curve) (human C1q [1]): ~0.3 µg/mL | Relative IC50 (human C1q [2]): 1.15 ratio to chimeric M1

B4: humanized anti-C1q antibody VH4/Vκ1 (antibody, human IgG4)
heavy: not shown
light: DVQITQSPSYLAASLGERATINCRASKSINKYLAWYQQKPGKTNKLLIYSGSTLQSGIPARFSGSGSGTDFTLTISSLEPEDFAMYYCQQHNEYPLTFGQGTKLEIK
notes: as for B1
IC50 (read off the curve) (human C1q [3]): ~0.3 µg/mL | Relative IC50 (human C1q [2]): 1.03 ratio to chimeric M1

B5: humanized anti-C1q antibody VH1/Vκ3 (antibody, human IgG4)
heavy: not shown
light: DVQITQSPSSLSASLGERATINCRASKSINKYLAWYQQKPGKAPKLLIYSGSTLQSGIPARFSGSGSGTDFTLTISSLEPEDFAMYYCQQHNEYPLTFGQGTKLEIK
notes: as for B1
IC50 (read off the curve) (human C1q [4]): ~0.3 µg/mL | Relative IC50 (human C1q [2]): 0.91 ratio to chimeric M1

B6: humanized anti-C1q antibody VH4/Vκ3 (antibody, human IgG4)
heavy: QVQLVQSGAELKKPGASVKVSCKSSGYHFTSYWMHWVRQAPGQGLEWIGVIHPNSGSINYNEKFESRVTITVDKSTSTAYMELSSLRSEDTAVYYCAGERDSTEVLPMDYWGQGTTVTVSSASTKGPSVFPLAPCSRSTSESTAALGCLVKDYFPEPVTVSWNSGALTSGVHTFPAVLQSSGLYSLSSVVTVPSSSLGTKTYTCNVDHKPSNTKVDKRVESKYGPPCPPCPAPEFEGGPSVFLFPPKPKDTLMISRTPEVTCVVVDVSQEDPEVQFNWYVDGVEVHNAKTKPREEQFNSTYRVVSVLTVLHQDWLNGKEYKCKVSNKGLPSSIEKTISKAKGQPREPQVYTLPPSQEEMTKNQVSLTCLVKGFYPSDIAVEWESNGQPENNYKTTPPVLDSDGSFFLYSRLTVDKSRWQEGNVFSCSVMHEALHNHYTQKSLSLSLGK
light: DVQITQSPSSLSASLGERATINCRASKSINKYLAWYQQKPGKAPKLLIYSGSTLQSGIPARFSGSGSGTDFTLTISSLEPEDFAMYYCQQHNEYPLTFGQGTKLEIK
notes: Full-length human IgG4 (S241P L248E) / human kappa, expressed in NS0, Protein A purified; also called 1D3; not shown: human kappa light chain constant region
IC50 (read off the curve) (human C1q [3]): ~0.2 µg/mL | amount of antibody required to inhibit 50% of human CH50 hemolysis (human C1q [5]): ~60 ng | amount of antibody required to inhibit approximately 50% to approximately 80% of rat CH50 hemolysis (rat C1q): ~60 ng | Relative IC50 (mouse C1q [6]): 1.84 ratio to chimeric M1 | Relative IC50 (human C1q [2]): 0.77 ratio to chimeric M1 | IC50 (read off the curve) (mouse C1q [7]): ~6 µg/mL

B7: humanized anti-C1q antibody VH3/Vκ2 (antibody, human IgG4)
heavy: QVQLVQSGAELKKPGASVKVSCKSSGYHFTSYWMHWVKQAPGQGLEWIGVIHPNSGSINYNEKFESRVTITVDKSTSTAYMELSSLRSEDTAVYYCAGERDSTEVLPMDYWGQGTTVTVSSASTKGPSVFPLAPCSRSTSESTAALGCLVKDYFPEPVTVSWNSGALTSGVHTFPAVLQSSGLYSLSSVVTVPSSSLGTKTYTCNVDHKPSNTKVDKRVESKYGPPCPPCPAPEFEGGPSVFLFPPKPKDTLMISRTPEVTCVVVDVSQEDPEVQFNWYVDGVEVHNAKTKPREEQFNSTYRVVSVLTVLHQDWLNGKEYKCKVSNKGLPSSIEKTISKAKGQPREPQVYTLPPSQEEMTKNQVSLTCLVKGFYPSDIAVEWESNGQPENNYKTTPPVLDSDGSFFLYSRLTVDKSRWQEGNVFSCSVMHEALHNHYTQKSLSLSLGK
light: DVQITQSPSSLSASLGERATINCRASKSINKYLAWYQQKPGKANKLLIYSGSTLQSGIPARFSGSGSGTDFTLTISSLEPEDFAMYYCQQHNEYPLTFGQGTKLEIK
notes: as for B1
IC50 (read off the curve) (human C1q [8]): ~0.3 µg/mL | Relative IC50 (human C1q [2]): 0.82 ratio to chimeric M1

B8: humanized anti-C1q antibody VH3/Vκ1 (antibody, human IgG4)
heavy: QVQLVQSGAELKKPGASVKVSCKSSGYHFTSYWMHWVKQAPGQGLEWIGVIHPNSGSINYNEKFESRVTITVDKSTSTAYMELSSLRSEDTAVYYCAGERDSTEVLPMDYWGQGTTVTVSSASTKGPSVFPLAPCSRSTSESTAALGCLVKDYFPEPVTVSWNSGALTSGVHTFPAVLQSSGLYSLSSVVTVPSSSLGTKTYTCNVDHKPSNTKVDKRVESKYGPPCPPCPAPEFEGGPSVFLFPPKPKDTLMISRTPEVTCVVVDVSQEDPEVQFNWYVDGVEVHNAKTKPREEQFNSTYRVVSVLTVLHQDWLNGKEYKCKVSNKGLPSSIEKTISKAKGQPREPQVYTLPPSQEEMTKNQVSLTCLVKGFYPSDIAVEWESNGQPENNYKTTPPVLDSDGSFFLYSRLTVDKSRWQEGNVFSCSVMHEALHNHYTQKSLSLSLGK
light: DVQITQSPSYLAASLGERATINCRASKSINKYLAWYQQKPGKTNKLLIYSGSTLQSGIPARFSGSGSGTDFTLTISSLEPEDFAMYYCQQHNEYPLTFGQGTKLEIK
notes: as for B1
IC50 (read off the curve) (human C1q [8]): ~0.2 µg/mL | Relative IC50 (human C1q [2]): 0.65 ratio to chimeric M1

B9: humanized anti-C1q antibody VH1/Vκ1 (antibody, human IgG4)
heavy: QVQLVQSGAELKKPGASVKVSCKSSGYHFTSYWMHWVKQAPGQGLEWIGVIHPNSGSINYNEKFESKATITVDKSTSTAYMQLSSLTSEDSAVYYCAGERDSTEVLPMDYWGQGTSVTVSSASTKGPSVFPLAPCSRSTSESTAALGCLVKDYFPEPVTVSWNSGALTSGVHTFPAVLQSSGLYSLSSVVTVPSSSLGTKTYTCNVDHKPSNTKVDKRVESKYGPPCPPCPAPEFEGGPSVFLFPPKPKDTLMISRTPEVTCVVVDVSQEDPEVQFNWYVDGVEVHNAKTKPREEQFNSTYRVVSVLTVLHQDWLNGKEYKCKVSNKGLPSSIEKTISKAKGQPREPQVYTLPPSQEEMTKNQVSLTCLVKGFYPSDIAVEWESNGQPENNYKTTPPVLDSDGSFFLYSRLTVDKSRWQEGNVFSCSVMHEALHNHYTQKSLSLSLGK
light: DVQITQSPSYLAASLGERATINCRASKSINKYLAWYQQKPGKTNKLLIYSGSTLQSGIPARFSGSGSGTDFTLTISSLEPEDFAMYYCQQHNEYPLTFGQGTKLEIK
notes: Full-length human IgG4 (S241P L248E) / human kappa, expressed in NS0, Protein A purified; also called 2B12; not shown: human kappa light chain constant region
IC50 (read off the curve) (human C1q [4]): ~0.3 µg/mL | amount of antibody required to inhibit 50% of human CH50 hemolysis (human C1q [5]): ~60 ng | amount of antibody required to inhibit approximately 50% to approximately 80% of rat CH50 hemolysis (rat C1q): ~60 ng | Relative IC50 (mouse C1q [6]): 1.62 ratio to chimeric M1 | Relative IC50 (human C1q [2]): 0.9 ratio to chimeric M1 | IC50 (read off the curve) (mouse C1q [7]): ~5 µg/mL

B10: humanized anti-C1q antibody VH1/Vκ4 (antibody, human IgG4)
heavy: not shown
light: DIQLTQSPSSLSASLGERATINCRASKSINKYLAWYQQKPGKAPKLLIYSGSTLQSGIPARFSGSGSGTDFTLTISSLEPEDFAMYYCQQHNEYPLTFGQGTKLEIK
notes: as for B1
IC50 (read off the curve) (human C1q [1]): ~0.2 µg/mL | Relative IC50 (human C1q [2]): 0.8 ratio to chimeric M1

B11: humanized anti-C1q antibody VH3/Vκ4 (antibody, human IgG4)
heavy: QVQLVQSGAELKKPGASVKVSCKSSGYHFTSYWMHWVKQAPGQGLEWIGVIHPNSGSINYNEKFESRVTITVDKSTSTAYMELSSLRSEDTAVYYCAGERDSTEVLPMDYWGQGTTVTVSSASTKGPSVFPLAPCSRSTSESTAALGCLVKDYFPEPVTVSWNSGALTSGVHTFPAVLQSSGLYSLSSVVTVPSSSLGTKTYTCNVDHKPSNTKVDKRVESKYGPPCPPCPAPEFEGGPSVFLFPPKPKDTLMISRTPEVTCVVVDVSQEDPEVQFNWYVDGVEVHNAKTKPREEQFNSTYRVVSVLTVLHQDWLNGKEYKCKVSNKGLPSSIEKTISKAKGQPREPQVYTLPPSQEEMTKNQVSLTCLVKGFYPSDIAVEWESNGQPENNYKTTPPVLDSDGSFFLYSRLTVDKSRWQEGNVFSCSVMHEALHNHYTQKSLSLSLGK
light: DIQLTQSPSSLSASLGERATINCRASKSINKYLAWYQQKPGKAPKLLIYSGSTLQSGIPARFSGSGSGTDFTLTISSLEPEDFAMYYCQQHNEYPLTFGQGTKLEIK
notes: Full-length human IgG4 (S241P L248E) / human kappa, expressed in NS0, Protein A purified; also called 3F1; not shown: human kappa light chain constant region
IC50 (read off the curve) (human C1q [8]): ~0.3 µg/mL | amount of antibody required to inhibit approximately 50% to approximately 80% of rat CH50 hemolysis (rat C1q): ~60 ng | Relative IC50 (mouse C1q [6]): 1.91 ratio to chimeric M1 | Relative IC50 (human C1q [2]): 0.83 ratio to chimeric M1 | IC50 (read off the curve) (mouse C1q [7]): ~6 µg/mL

B12: humanized anti-C1q antibody VH4/Vκ2 (antibody, human IgG4)
heavy: not shown
light: DVQITQSPSSLSASLGERATINCRASKSINKYLAWYQQKPGKANKLLIYSGSTLQSGIPARFSGSGSGTDFTLTISSLEPEDFAMYYCQQHNEYPLTFGQGTKLEIK
notes: as for B1
IC50 (read off the curve) (human C1q [3]): ~0.2 µg/mL | Relative IC50 (human C1q [2]): 0.84 ratio to chimeric M1

B13: humanized anti-C1q antibody VH2/Vκ3 (antibody, human IgG4)
heavy: not shown
light: DVQITQSPSSLSASLGERATINCRASKSINKYLAWYQQKPGKAPKLLIYSGSTLQSGIPARFSGSGSGTDFTLTISSLEPEDFAMYYCQQHNEYPLTFGQGTKLEIK
notes: as for B1
IC50 (read off the curve) (human C1q [1]): ~0.2 µg/mL | Relative IC50 (human C1q [2]): 0.75 ratio to chimeric M1

B14: humanized anti-C1q antibody VH1/Vκ2 (antibody, human IgG4)
heavy: not shown
light: DVQITQSPSSLSASLGERATINCRASKSINKYLAWYQQKPGKANKLLIYSGSTLQSGIPARFSGSGSGTDFTLTISSLEPEDFAMYYCQQHNEYPLTFGQGTKLEIK
notes: as for B1
IC50 (read off the curve) (human C1q [4]): ~0.3 µg/mL | Relative IC50 (human C1q [2]): 0.84 ratio to chimeric M1

B15: humanized anti-C1q antibody VH4/Vκ4 (antibody, human IgG4)
heavy: not shown
light: DIQLTQSPSSLSASLGERATINCRASKSINKYLAWYQQKPGKAPKLLIYSGSTLQSGIPARFSGSGSGTDFTLTISSLEPEDFAMYYCQQHNEYPLTFGQGTKLEIK
notes: as for B1
IC50 (read off the curve) (human C1q [3]): ~0.2 µg/mL | Relative IC50 (human C1q [2]): 0.92 ratio to chimeric M1
